From patent US9657081B2, “Inhibiting peptides derived from triggering receptor expressed on myeloid cells-1 (TREM-1) TREM-like transcript 1 (TLT-1) for treatment of cardiovascular diseases” (INSERM (Institut National de la Sante et de la Recherche …, priority 2013, dated 2017)

Target: T1, TREM-1 (Mus musculus, UniProt Q9JKE2)
T1 construct: endogenous in cells; host or cells: living mice (C57BL, Balb/c, ApoE-/-), in vivo
T1 sequence (Q9JKE2 21-230): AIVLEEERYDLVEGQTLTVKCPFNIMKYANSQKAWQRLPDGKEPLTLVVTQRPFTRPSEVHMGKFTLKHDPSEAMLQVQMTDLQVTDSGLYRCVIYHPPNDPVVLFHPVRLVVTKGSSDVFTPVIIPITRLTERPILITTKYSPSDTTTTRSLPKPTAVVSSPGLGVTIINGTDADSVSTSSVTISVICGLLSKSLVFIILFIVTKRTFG
Experiment: Mouse myocardial infarction, myocardial inflammatory reaction and protease activity in infarcted tissue
Format: in vivo
Conditions: myocardium after coronary artery ligation
Procedure: For these experiments, myocardial lysate was obtained 24 hours after the induction of myocardial infarction from mice treated with TREM-1- and TLT-1-derived peptides or control LR12-scrambled peptide (‘controls’). Two areas were studied: a healthy area harvested distally from the infarcted zone in a control animal and an infarcted area. Data are representative of at least 5 different experiments. Results are mean±SD. p values are *p<0.001 [LR12 versus controls].
For these experiments, myocardial lysate was obtained 6, 24 and/or 96 hours after the induction of myocardial infarction from mice treated with TREM-1- and TLT-1-derived peptides or control LR12-scrambled peptide (‘controls’). Infarcted areas were analyzed for cytokine/chemokine production. Data are representative of at least 5 different experiments. p values are *p<0.001 [LR12 versus controls].
For these experiments, myocardial lysate was obtained 6, 24 and 96 hours after the induction of myocardial infarction from mice treated with TREM-1- and TLT-1-derived peptides or control LR12-scrambled peptide (‘controls’). Infarcted areas were analyzed. […]
Mice were monitored after surgery for mortality. Mice were randomized to receive or not peptides (daily ip injection for 5 days, 5 mg/kg) and monitored for survival. […]
MMP-9 enzymatic activity in tissue extracts was determined by SDS-PAGE gelatin zymography. […]

Sequence: LQEEDAGEYGCM (listed as Homo sapiens) [TLT1-LR12]
- myocardial infarction-induced gene activation (innate immunity / endothelial function genes): opposed to myocardial infarction-induced gene activation
